Measured values from publication PMC6053543.

Target: β1 wild-type cytoplasmic tail peptide
Experiment: pull-down

fold more talin pulled down with equal molar FL-Kank2 than with GST only: 5 fold
fold more talin pulled down with equal molar GST-KN than with GST only: 5 fold
Substance: recombinant full length talin-1, P26039 1-2541
